Measurements: patent publication US20200199241A1 (Chugai, published 2020)
Numbering of substitutions follows the chain as printed.

B1: IgG1-F789 (antibody)
heavy: QVQLQESGPGLVKPSETLSLTCAVSGHSISHDHAWSWVRQPPGEGLEWIGFISYSGITNYNPSLQGRVTISRDNSKNTLYLQMNSLRAEDTAVYYCARSLARTTAMDYWGEGTLVTVSSASTKGPSVFPLAPSSKSTSGGTAALGCLVKDYFPEPVTVSWNSGALTSGVHTFPAVLQSSGLYSLSSVVTVPSSSLGTQTYICNVNHKPSNTKVDKKVEPKSCDKTHTCPPCPAPELLGGPSVFLFPPKPKDTLYISRTPEVTCVVVDVSHEDPEVKFNWYVDGVEVHNAKTKPREEQYNSTYRVVSVLTVLHQDWLDGKEYKCKVSNKALPAPIEKTISKAKGQPREPQVYTLPPSRDELTKNQVSLTCLVKGFYPSDIAVEWESNGQPENNYKTTPPVLDSDGSFFLYSKLTVDKSRWQQGNVFSCSVMHEALHYHYTQKSLSLSP
light: not shown
notes: EU numbering; copies: 2 + 2
B2: IgG1-F819 (antibody)
heavy: B1 heavy with P240D, N288E, D317N
light: not shown
notes: EU numbering; copies: 2 + 2
B3: IgG1-F809 (antibody)
heavy: B1 heavy with S256T, T258S, D317N
light: not shown
notes: EU numbering; copies: 2 + 2
B4: IgG1-F822 (antibody)
heavy: B1 heavy with P240D, T252Y, W315Y, D317N
light: not shown
notes: EU numbering; copies: 2 + 2
B5: IgG1-F823 (antibody)
heavy: B1 heavy with P240D, T252Y, W315F, D317N
light: not shown
notes: EU numbering; copies: 2 + 2
B6: IgG1-F839 (antibody)
heavy: B1 heavy with P240D, T252V, R257L, D317N
light: not shown
notes: EU numbering; copies: 2 + 2
B7: IgG1-F799 (antibody)
heavy: B1 heavy with D317R
light: not shown
notes: EU numbering; copies: 2 + 2
B8: IgG1-F850 (antibody)
heavy: B1 heavy with D282E, D317N
light: not shown
notes: EU numbering; copies: 2 + 2
B9: IgG1-F805 (antibody)
heavy: B1 heavy with D317N, N327A
light: not shown
notes: EU numbering; copies: 2 + 2
B10: IgG1-F803 (antibody)
heavy: B1 heavy with D317W
light: not shown
notes: EU numbering; copies: 2 + 2
B11: IgG1-F868 (antibody)
heavy: B1 heavy with G238A, S241D, N288E, T309Q, Q313A, D317N
light: not shown
notes: EU numbering; copies: 2 + 2
B12: IgG1-F848 (antibody)
heavy: B1 heavy with P240D, T252V, R257Y, D317N
light: not shown
notes: EU numbering; copies: 2 + 2
B13: IgG1-F808 (antibody)
heavy: B1 heavy with D317N, N391A, N392A
light: not shown
notes: EU numbering; copies: 2 + 2
B14: IgG1-F833 (antibody)
heavy: B1 heavy with P240D, T252V, R257E, D317N
light: not shown
notes: EU numbering; copies: 2 + 2
B15: IgG1-F793 (antibody)
heavy: B1 heavy with D317I
light: not shown
notes: EU numbering; copies: 2 + 2
B16: IgG1-F852 (antibody)
heavy: B1 heavy with D282G, D317N
light: not shown
notes: EU numbering; copies: 2 + 2
B17: IgG1-F806 (antibody)
heavy: B1 heavy with D317N, N386A
light: not shown
notes: EU numbering; copies: 2 + 2
B18: IgG1-F855 (antibody)
heavy: B1 heavy with D282K, D317N
light: not shown
notes: EU numbering; copies: 2 + 2
B19: IgG1-F798 (antibody)
heavy: B1 heavy with D317Q
light: not shown
notes: EU numbering; copies: 2 + 2
B20: IgG1-F838 (antibody)
heavy: B1 heavy with P240D, T252V, R257K, D317N
light: not shown
notes: EU numbering; copies: 2 + 2
B21: IgG1-F853 (antibody)
heavy: B1 heavy with D282H, D317N
light: not shown
notes: EU numbering; copies: 2 + 2
B22: IgG1-F871 (antibody)
heavy: B1 heavy with L237R, S241K, T309Q, Q313A, D317N
light: not shown
notes: EU numbering; copies: 2 + 2
B23: IgG1-F837 (antibody)
heavy: B1 heavy with P240D, T252V, R257I, D317N
light: not shown
notes: EU numbering; copies: 2 + 2
B24: IgG1-F807 (antibody)
heavy: B1 heavy with D317N, N391A
light: not shown
notes: EU numbering; copies: 2 + 2
B25: IgG1-F815 (antibody)
heavy: B1 heavy with D317N, T439R
light: not shown
notes: EU numbering; copies: 2 + 2
B26: IgG1-F836 (antibody)
heavy: B1 heavy with P240D, T252V, R257H, D317N
light: not shown
notes: EU numbering; copies: 2 + 2
B27: IgG1-F795 (antibody)
heavy: B1 heavy with D317L
light: not shown
notes: EU numbering; copies: 2 + 2
B28: IgG1-F817 (antibody)
heavy: B1 heavy with P240D, T252V, T309Q, Q313A, D317N
light: not shown
notes: EU numbering; copies: 2 + 2
B29: IgG1-F816 (antibody)
heavy: B1 heavy with P240D, T252V, T309P, D317N
light: not shown
notes: EU numbering; copies: 2 + 2
B30: IgG1-F832 (antibody)
heavy: B1 heavy with P240D, T252V, R257D, D317N
light: not shown
notes: EU numbering; copies: 2 + 2
B31: IgG1-F870 (antibody)
heavy: B1 heavy with L237K, S241K, T309Q, Q313A, D317N
light: not shown
notes: EU numbering; copies: 2 + 2
B32: IgG1-F841 (antibody)
heavy: B1 heavy with P240D, T252V, R257N, D317N
light: not shown
notes: EU numbering; copies: 2 + 2
B33: IgG1-F862 (antibody)
heavy: B1 heavy with D282S, D317N
light: not shown
notes: EU numbering; copies: 2 + 2
B34: IgG1-F858 (antibody)
heavy: B1 heavy with D282N, D317N
light: not shown
notes: EU numbering; copies: 2 + 2
B35: IgG1-F813 (antibody)
heavy: B1 heavy with D317N, S426E
light: not shown
notes: EU numbering; copies: 2 + 2
B36: IgG1-F820 (antibody)
heavy: B1 heavy with L237K, S241K, D317N
light: not shown
notes: EU numbering; copies: 2 + 2
B37: IgG1-F790 (antibody)
heavy: B1 heavy with D317E
light: not shown
notes: EU numbering; copies: 2 + 2
B38: IgG1-F831 (antibody)
heavy: B1 heavy with P240D, T252V, R257A, D317N
light: not shown
notes: EU numbering; copies: 2 + 2
B39: IgG1-F840 (antibody)
heavy: B1 heavy with P240D, T252V, R257M, D317N
light: not shown
notes: EU numbering; copies: 2 + 2
B40: IgG1-F834 (antibody)
heavy: B1 heavy with P240D, T252V, R257F, D317N
light: not shown
notes: EU numbering; copies: 2 + 2
B41: IgG1-F863 (antibody)
heavy: B1 heavy with D282T, D317N
light: not shown
notes: EU numbering; copies: 2 + 2
B42: IgG1-F804 (antibody)
heavy: B1 heavy with D317Y
light: not shown
notes: EU numbering; copies: 2 + 2
B43: IgG1-F860 (antibody)
heavy: B1 heavy with D282Q, D317N
light: not shown
notes: EU numbering; copies: 2 + 2
B44: IgG1-F861 (antibody)
heavy: B1 heavy with D282R, D317N
light: not shown
notes: EU numbering; copies: 2 + 2
B45: IgG1-F810 (antibody)
heavy: B1 heavy with D317N, A380V
light: not shown
notes: EU numbering; copies: 2 + 2
B46: IgG1-F800 (antibody)
heavy: B1 heavy with D317S
light: not shown
notes: EU numbering; copies: 2 + 2
B47: IgG1-F812 (antibody)
heavy: B1 heavy with D317N, E384V
light: not shown
notes: EU numbering; copies: 2 + 2
B48: IgG1-F814 (antibody)
heavy: B1 heavy with D317N, Y438I
light: not shown
notes: EU numbering; copies: 2 + 2
B49: IgG1-F847 (antibody)
heavy: B1 heavy with P240D, T252V, R257W, D317N
light: not shown
notes: EU numbering; copies: 2 + 2
B50: IgG1-F811 (antibody)
heavy: B1 heavy with D317N, E382S
light: not shown
notes: EU numbering; copies: 2 + 2
B51: IgG1-F844 (antibody)
heavy: B1 heavy with P240D, T252V, R257S, D317N
light: not shown
notes: EU numbering; copies: 2 + 2
B52: IgG1-F792 (antibody)
heavy: B1 heavy with D317G
light: not shown
notes: EU numbering; copies: 2 + 2
B53: IgG1-F796 (antibody)
heavy: B1 heavy with D317M
light: not shown
notes: EU numbering; copies: 2 + 2
B54: IgG1-F828 (antibody)
heavy: B1 heavy with P240D, T252V, I255V, D317N
light: not shown
notes: EU numbering; copies: 2 + 2
B55: IgG1-F843 (antibody)
heavy: B1 heavy with P240D, T252V, R257Q, D317N
light: not shown
notes: EU numbering; copies: 2 + 2
B56: IgG1-F849 (antibody)
heavy: B1 heavy with D282A, D317N
light: not shown
notes: EU numbering; copies: 2 + 2
B57: IgG1-F821 (antibody)
heavy: B1 heavy with L237R, S241K, D317N
light: not shown
notes: copies: 2 + 2
B58: IgG1-F801 (antibody)
heavy: B1 heavy with D317T
light: not shown
notes: EU numbering; copies: 2 + 2
B59: IgG1-F794 (antibody)
heavy: B1 heavy with D317K
light: not shown
notes: EU numbering; copies: 2 + 2
B60: IgG1-F867 (antibody)
heavy: B1 heavy with D317N, N386A, N391A
light: not shown
notes: EU numbering; copies: 2 + 2

Target: T1, soluble human FcRn complexed with β2-microglobulin (human, UniProt P61769 21-119, limits assumed)
T1 construct: also called hFcRn
Experiment: Biacore SPR, pH 7.0;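 also: test antibodies captured on a Protein L chip with human FcRn flowed over as analyte, KD obtained as the ratio of dissociation to association rate constants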
Description: A kinetic analysis of binding between human FcRn and the aforementioned antibodies was carried out using the BIACORE™ T100 or T200 surface plasmon resonance system (GE Healthcare). The antibodies being tested were captured on the CM4 Sensor Chip (GE Healthcare) on which a suitable amount of Protein L (ACTIGEN® protein (Alltech)) was suitably immobilized by amine coupling. Next, diluted human FcRn and a running buffer used as a blank were injected to allow the human FcRn to interact with the antibody captured on the sensor chip. A buffer consisting of 50 mmol/L sodium phosphate, 150 mmol/L NaCl and 0.05% (w/v) polysorbate 20 (Tween 20®) (pH 7.0 or pH 7.4) was used for the running buffer, and each buffer was also used to dilute the human FcRn. 10 mmol/L glycine-HCl (pH 1.5) was used to regenerate the sensor chip. All measurements of binding were carried out at 25° C. The KD(M) of each antibody to human FcRn was calculated based on kinetics parameters, i.e., the association rate constant ka (1/Ms) and the dissociation rate constant kd (1/s) calculated from a sensorgram obtained by the measurement. The BIACORE™ T100 or T200 Evaluation Software (GE Healthcare) was used to calculate each parameter.

Kd	Binder
0.15 µM	B1
0.14 µM	B2
0.22 µM	B3
1.1 µM	B4
1.1 µM	B5
0.34 µM	B6
0.41 µM	B7
0.29 µM	B8
0.3 µM	B9
0.36 µM	B10
0.02 µM	B11
0.83 µM	B12
0.32 µM	B13
0.8 µM	B14
0.33 µM	B15
0.33 µM	B16
0.31 µM	B17
0.32 µM	B18
0.35 µM	B19
0.43 µM	B20

Kd	Binder
0.32 µM	B21
0.071 µM	B22
0.56 µM	B23
0.32 µM	B24
0.55 µM	B25
0.5 µM	B26
0.31 µM	B27
0.098 µM	B28
0.36 µM	B29
2.6 µM	B30
0.073 µM	B31
1.1 µM	B32
0.3 µM	B33
0.32 µM	B34
0.28 µM	B35
0.34 µM	B36
0.27 µM	B37
1.6 µM	B38
0.42 µM	B39
0.81 µM	B40

Kd	Binder
0.27 µM	B41
0.4 µM	B42
0.33 µM	B43
0.32 µM	B44
0.22 µM	B45
0.38 µM	B46
0.27 µM	B47
0.12 µM	B48
0.34 µM	B49
0.49 µM	B50
1.3 µM	B51
0.44 µM	B52
0.34 µM	B53
2.5 µM	B54
0.66 µM	B55
0.33 µM	B56
0.31 µM	B57
0.44 µM	B58
0.41 µM	B59
0.28 µM	B60
